From the nanobody polyreactivity screen of Harvey et al. (2022)

Assay: yeast display, Sf9 membrane polyspecificity reagent, FACS + sequencing; frameworks hold sequencing errors
Procedure, shortened: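 Sorting gates, low and high (top ~1%), were placed on anti-HA fluorescence to track expression and on streptavidin fluorescence to track reagent binding. A clone's polyreactivity label is taken from the gate it came out of. The reagent was 10% biotinylated, detergent-solubilized Sf9 membrane, applied for 1 hour at 4 °C to galactose-induced yeast display cells.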

| Sequence | polyreactivity (PSR sort gate) |
| --- | --- |
| QGQLVESGGGLVQAGASLRLSCAASGFIFAHYTMGWYRQAPGKARELVAAITRAGGSTFYADSVKGRFTISRDNAKNTVYLQRNSLKPEDTAVYYCNRGNRWNFDSWGQGTQVTVSS | high polyreactivity |
| QVQLVDSGGGLVQAGGRLRLSCAASGSIYAAYTMGRYRQAPGKERELVAAISVSTVSTYYADSVKGRFTISRDNAKNTVYLQMNSLKPDDTAVYYCNADATYSYPEKDEPDSWGQGTQVTVSS | low polyreactivity |
| QVQLVESGGGLVQAGGSLRLSCAASGRTSLAYAMGWYRQAPGKERELVAGITSGGNTNYADSVKGRFTISCDNAKNTVYLQMNSLKPEDTAVYSCNKKKRWQWYSESVLDYLGFYSWGQGTQVTVSS | low polyreactivity |
| QVQLVESGGGLVQAGGSLRLSCAASGLTFGSYAMGWYRQAPGKERELVAAISRSGGSTYYADSVMGRFTISRDNAKNTVYLQMNSLKPEDTAVYYCNAVNRYYAPTDRRVGYDYWGQGTQVTVSS | high polyreactivity |
| QVQLVESGGGLVQAGGSLRLSCAASGSTFHYYAMGWYRQAPGKERELVAAISGSGSSTYYADSVKGRFTISRDNAKNTVYLQMNRLKPEDTAVYYCNARGHYPRARFGYKSGSDRYWGQGTQVTVSS | high polyreactivity |
| QVHLVESGGGLVQAGGSLRLSCAASGRIFNPNAMGWYRQAPGKERELVAAITSGDSTNYADSVKGRFTISRDNAKNTVYLQMNSLKPEDTAVYYCAADWTYPYNSWGQGTQVTVSS | low polyreactivity |
| QVQLVESGGGLVQAGGSLRLSCAASGSIFFGNAMGWYRQAPGKERELVAAITRRGGSTYYADSVKGRFTISRDNEKNTVYLQMNSLKPEDTAVYYCKAVSKRYGYGYWGLGTQVTVSS | high polyreactivity |
| QVQHVESGGGIVQAGGSLRLSCAASGSTFRWYAMGWYRQARGQERELVAAFTAGGRTYYADSVKGRFTISRDNAKNTVYLQMNSLKPEDTAVYYCNALGKVWRGGKFGYWGQGTQVTVSS | high polyreactivity |
| QVQLVESGGGLVQAGGSLRLSCAASGRIFNGYAMGWYRQAPGKERELVAAINSSGGSTYYADSVKGRFTISRDNAKNTVFLQMNSLKPEDTAVYYCARVSYHYRTYDYWGQGTQVTVSS | high polyreactivity |
| QVQLVESGGGLVQAGGSLRLSCAASGSIFFNTMGWYRQAPGKERELVAAISRSGGSTYYADSVKGRFTISRDNAKNTVYLQMNSLKPEDTAVYYCNALRWSQYTYSSRLGHFDSWGQGTQVTVSS | high polyreactivity |
| QVQLVESGGGLVQAGGSLRLSCAASGFTFNYNTMGWYRPAPGKERELVARISRSGGRTYYADSVKGRFTISRDNAKNTVYLQMNSLKPEDTAVYYCNTDYYGVRHRYDYWGQGTQVTVSS | high polyreactivity |
| QVQLVESGGGLVQAGGSLRLSCAASGFTFGLYAMGWYRQAPGKERELVAVISSSGGSTYYADSVKGRFTISRDNAKNTVYLQMNSLTPEDTAVYYCAKDFEAGDDYFAYDYWGQGTQVTVSS | low polyreactivity |
| QDQLVESGGGLVQAGGSLRLSCAASGFTFVINDMGWYRQAPGKEREMVADITSGGDTYYADSVKGRFTISRDNAKNTVDLQMNSLKPEDTAVYYCAADIYPDWIYLLYGYWGQGTQVSVSS | low polyreactivity |
| QDQLVESGGGLVQAGGSLRLSCAASGRIFAGYAMGWYRQAPGKERELVATISSGGSTYYADSVKGRFTISRDNAKNTVYLQMHSLKPEDTAVYYCAAEYGTRQYSSYYKLFNYWGQGTQVTVSS | low polyreactivity |
| QVQLVESGGGLVQAGGSLRLSCAASGYTFSYYAMGWYRQAPGKERELVAAISVRGDSTYYADSVKGRFTISRDYAKNTVYLLMNSLKPEDTAVYYCAARVVRSSYVRYHYWGQGTQVTVSS | high polyreactivity |
| QVQLQDSGGGLVQAGGSLRQRCAASGYISSLAAMGWYRQAPGKERDLVAGNDLGTITNYADSVKGSLTISRDNAKNTVYLQMNSLIPEDTAVYYCAPTWYYHYNDWKHWYEYGYWGQGTQVTVSS | low polyreactivity |
| QVQLVESGGGLVQAGGSLRLSCAASGFTVRKYAMGWYRQAPGKERELVAAITWSGGRTYYADSVKGRFTISRDNAKNTVSLQMNSLKPEDTAVYYCAAVIQSRKYDSWGQGTQVTVSS | high polyreactivity |
| QVQLVESGGGLVQAGGSLRLSCAASGRILVRYAMGWYRQAPGKERELVAAISSSGSSTYYADSVKGRFTISRYNAKNTVYLQMNSLKPEDTAVYYCAADWEYVFYEYGYWGQGTQVTVSS | low polyreactivity |
| QDQLVESGRGLVQAGGSLRLSCAASGFIFYNYAMGWYIQAPGKERELVAAISASGGRTYFADSVQGRFTISRDNAKNTVYLQMNRLKPEDTAFYYCNARVNYKGYDYWGQGTQVTVSS | high polyreactivity |
| QVQLVESGGGLVQAGGSLRLSCAASGLIFYPYAMGWYRQAPGKERELVAAISSGGSTNYADSVKGRFTISRDNAKNTVYLQMNSLKPEDTAVYYCAKRYPSFRGYGSFRYSGRKYWGQGTQVTVSS | high polyreactivity |
| QVQLVESGGGLVQAGGSLRLSCAASGITFVTYAMGWYRQAPGKERELVAAISRSGGNTYYADSVKGRFTISRDNAKNTVYLQMNSLKPEDTAVYYCAAGGHRERDYWGQGTQVTVSS | high polyreactivity |
| QLQLVESGGGLVQAGGSLRLSCAASGRIFEYYAMGWYRQAPGKERELVAAISWSGGSTYYADSVKGRFTISRDNAKNTVYLQMNSLTPEDTAVYYCARDLPYYSISRYDYWGLGTQVTVSS | high polyreactivity |

| Sequence | polyreactivity (PSR sort gate) |
| --- | --- |
| QVQLVESGGGLVQAGGSLRLSCAASGSIFADYAMGWYRQAPGKERELVAAISYNGDSTYYADSVKGRFTISRDNAKTTVYLQMNSLKPEDTAVYNCAADGAYGGYDYWGQGTQVTVSS | low polyreactivity |
| QVQLVESGGGLVQAGGSLRLSCAASGSIFTYNVMGWYRHAPGKERELVAAIRTRGDRTYYADSVKGRFTISRDNAKNTVYLQMNSLKPDDTAVYYCAAAGSYYSHEYWGQGTQVTVSS | high polyreactivity |
| QVQLVESGGGLVQAGGSLRLSCAASGRTFYGYAMGWYRQAPGKERELVAAISSDTGGTDDTYYADSVKGRFTISRDNAKNTVYLQMNSLKPEDTAVYYCAAETEQGIIVTGLAYDYWGQGTQVTVSS | low polyreactivity |
| QVQLVESGGGLVQAGGSLRISCAASGSNFTQYDMGWYRQAPGKERELVAAITSGGSTDYADSVKGRFTISRDNAKNTVYLQMNSLKPEDTAVYYCNAEAYPYWYRGASREYDYWGQGTQVTVSS | low polyreactivity |
| QVQLVESGGGLVQAGGILRLSCAASGRTFYSNAMGWYRQAPGKARELVAAISRSGGRTYYADSVKGRFTISRDNAKISVYLQMNSLKTEDTAVYYCNKVRQNSSMDYWGQGTQVTVSS | high polyreactivity |
| QDQLVESGGGLVQAGGRLRLSCAASVRIFWVNAMGWYRQAPGKERELVAAISWTSGSTYYADSVKGRFTISRDHANNTVYLMMNSLKPEDTAVYYCNKVQSGEYDYWGQGTQVTVSS | high polyreactivity |
| QVQLVESGGGLVQAGGILRLSCAASGSIFPFYAMGWYRQAPGKERELVATISWSGGRTYYADSVKGRFTISRDNANNTVYFQMNSLKPEVTAVYYCAAQSYDYWYDYDYWGQGTQVTVSS | high polyreactivity |
| QVQLVESGGGLVQAGGSLRLSCAASGAIFAYNAMGWYRQAPGKEREFVAAISQSGGRTYYADSVKGRFTISRDYEKNTVYLQMNTLKPEDTAVYYCATDGIRLTSHRDYDYWGQGTQVTVSS | low polyreactivity |
| QVQLVESGGGLVQAGGSLRLSCAASGSTFGHYAMGCYRQAPGKERDLVAAISWSGASTYYADSVKGRFTISRDNAKNTVYLQMNSLKPEDTAVYYCAAESYRQTYYVGDGYEDDYWGQGTQVTVSS | low polyreactivity |
| QVQLVESGGGLVQAGGSLRLSCAASGRTLVPYAMGWYRQAPGKERELVAAISNVSSTNYADSVKGRFTISRDNAKNTGYLQMNSLKPEDTAVYYCNAVGVPSEYYSWGQGTQVTVSS | low polyreactivity |
| QVQLVESAGGLVQAGGSLRLSCAASGSILPSNAMGWYRQATGKERELVAGLSERGSSTYYADSVKGRFTISRDNAKNTVYLQMNSLKPEDTAVYYCAADDVGRYWSSTHNWARGEYWGQGTHVTVSS | low polyreactivity |
| QVQLVESGGGLVQAGGSLRLSCAASGSIFGDYAMGWYRQAPGKERELVAAISRADGTYYADSVKGRFTISRDNAKNTVYLQMNSLKPEDTAVYYCATDYGIRSYYYSWYYVFTADDYWGQGTQVTVSS | low polyreactivity |
| QVQLVESGGGLVQAGGSLRLSCAASGLTFYTYAMGWYRQAPGKERELVAAITYSGGRTSYADSVKGRFTISRDNAKNTVYLQMNSLKPEDTAVYYCAARTLGRRLDYGYWGQGTQVTVSS | low polyreactivity |
| QVQLVESGGGLVQAGGSLRLSCAASGFIFIFYAMGWYRQAPGKERELVAGISWSSSSTYYADSVKGRFTISRDNAKNTVYLLMNSLKPEDTAVYYFNAKHLPRHRDYWGQGTQVTVSS | low polyreactivity |
| QVQLVESGGGLFQAGRSLRISCAASGFIFSQNTMGWYRQAPGKEWELVAAISKSRGTTYYADSVKGRYTITRDNAKNTVYLQMYSLKPEDTAVYYCAARIQWPTWSLYYYWGQGTQVTVSS | high polyreactivity |
| QVQLVESGGGLVQAGGSLRLSCAASGIIFAWYVKGWYRQAPGKERELVAAITQSGGSTFYADSVKWRFTISRDNAKNTVYLQMNSLKPEDTAVYYCNREYWGRGYYRVRGEYDYWGQGTQVTVSS | low polyreactivity |
| QVQLVESGGGLVQAGGSLRLSCAASGRTFLPNAMGWYRQAPGKERELVAVITSGGSTNYADSVKGRFTISRDNAKNTVYLQMNSLKPEDTAVYYCAADWWRVEMEYWGQGTQVTVSS | low polyreactivity |
| QVQLVESGGGLVQAGGSLRLSCAASGRIFTHNAMGWYRQAPGKERELVAAITSGGRTTYADSVKGRFTISRDNAKNTVYFQMNSLKPEDTAVYYCNADTGLGSLDFDKRDYWGQGTQVTVSS | low polyreactivity |
| QVQLVESGGGLVQAGGSLRLSCAATGLIFSRNAMGWYRQAPGKERELVAAISTGGSTYYADSVKGRFTISRDNAKITVYLQMNSLKPEDTAVYYCAAAPGYIYEYWGQGTQVTVSS | low polyreactivity |
| QVQLVESGGGLVQAGGSLRLSCAASGSIFWPYTMGWYRQAPGKEWELVAAITSTDSTDYADSVKGRFTISRDNAKNTVYLQMNSLKPEDTAVYYCNADYQSRTGSVIYTAHPYDYWGQGTQVTVSS | low polyreactivity |
| QVQLVESGGGLVQAGGSLRLSCAASGRTFYGYAMGWYIQAPGKERELVASISYSGGNTYYADSVKGRFTISRDNAKNTVYLQMNSLKPEDTAVYYCAAKARRPYSYHPYDYWGLGTQVTVSS | high polyreactivity |
